Reference: patent publication US20080267971A1 (published 2008)

T1: Mouse/Human Ang-2 StuI chimeric molecule (mouse; human, UniProt O35608 19-496)
T1 construct: also called M/H Stul 310-496
T1 chain: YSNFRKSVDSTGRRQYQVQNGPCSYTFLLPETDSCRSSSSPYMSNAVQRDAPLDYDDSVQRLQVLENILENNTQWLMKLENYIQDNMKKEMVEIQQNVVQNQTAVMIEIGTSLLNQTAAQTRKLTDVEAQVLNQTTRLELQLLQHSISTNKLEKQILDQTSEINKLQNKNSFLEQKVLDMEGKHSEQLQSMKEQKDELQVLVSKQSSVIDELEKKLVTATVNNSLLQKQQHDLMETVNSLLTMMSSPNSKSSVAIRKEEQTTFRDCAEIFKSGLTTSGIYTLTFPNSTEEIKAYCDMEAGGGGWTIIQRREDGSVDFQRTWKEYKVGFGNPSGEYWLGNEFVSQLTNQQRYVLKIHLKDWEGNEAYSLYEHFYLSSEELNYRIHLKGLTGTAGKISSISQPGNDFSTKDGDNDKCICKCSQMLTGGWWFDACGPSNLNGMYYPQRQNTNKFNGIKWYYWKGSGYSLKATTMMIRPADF

T2: human Ang-2 V345M (human, UniProt O15123 19-496)
T2 sequence: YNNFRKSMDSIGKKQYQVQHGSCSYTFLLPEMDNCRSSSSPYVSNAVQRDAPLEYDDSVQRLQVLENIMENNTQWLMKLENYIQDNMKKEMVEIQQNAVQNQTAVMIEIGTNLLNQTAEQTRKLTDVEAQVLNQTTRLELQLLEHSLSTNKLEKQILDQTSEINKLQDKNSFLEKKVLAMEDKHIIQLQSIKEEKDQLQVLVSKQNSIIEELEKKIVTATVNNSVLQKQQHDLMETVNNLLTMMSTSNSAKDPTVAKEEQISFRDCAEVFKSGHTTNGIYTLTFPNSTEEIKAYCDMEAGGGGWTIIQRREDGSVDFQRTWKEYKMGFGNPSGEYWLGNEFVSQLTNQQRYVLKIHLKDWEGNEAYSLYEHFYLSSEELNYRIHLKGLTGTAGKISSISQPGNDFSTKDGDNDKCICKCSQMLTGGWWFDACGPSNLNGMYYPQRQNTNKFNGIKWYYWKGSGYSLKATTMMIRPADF

T3: Mouse/Human chimeric Ang-2 with the human StuI-TfiI fragment (mouse/human chimera, UniProt O35608 19-496)
T3 construct: also called Stu-Tfil 310-400
T3 chain: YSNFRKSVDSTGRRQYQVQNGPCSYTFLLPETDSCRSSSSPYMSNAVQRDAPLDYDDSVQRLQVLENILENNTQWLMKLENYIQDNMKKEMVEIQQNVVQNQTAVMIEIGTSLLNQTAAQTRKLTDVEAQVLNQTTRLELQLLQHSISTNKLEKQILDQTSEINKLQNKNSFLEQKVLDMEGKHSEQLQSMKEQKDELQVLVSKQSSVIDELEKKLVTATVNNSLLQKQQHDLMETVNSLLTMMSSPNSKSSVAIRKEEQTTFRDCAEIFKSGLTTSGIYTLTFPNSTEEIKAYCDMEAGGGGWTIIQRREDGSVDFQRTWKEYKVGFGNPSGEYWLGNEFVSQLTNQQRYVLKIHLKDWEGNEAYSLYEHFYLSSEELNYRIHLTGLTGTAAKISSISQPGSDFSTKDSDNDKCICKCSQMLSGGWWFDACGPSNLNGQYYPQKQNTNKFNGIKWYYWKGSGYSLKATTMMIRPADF

T4: Human Ang-1/2 BsmI chimeric molecule (human)
T4 chain: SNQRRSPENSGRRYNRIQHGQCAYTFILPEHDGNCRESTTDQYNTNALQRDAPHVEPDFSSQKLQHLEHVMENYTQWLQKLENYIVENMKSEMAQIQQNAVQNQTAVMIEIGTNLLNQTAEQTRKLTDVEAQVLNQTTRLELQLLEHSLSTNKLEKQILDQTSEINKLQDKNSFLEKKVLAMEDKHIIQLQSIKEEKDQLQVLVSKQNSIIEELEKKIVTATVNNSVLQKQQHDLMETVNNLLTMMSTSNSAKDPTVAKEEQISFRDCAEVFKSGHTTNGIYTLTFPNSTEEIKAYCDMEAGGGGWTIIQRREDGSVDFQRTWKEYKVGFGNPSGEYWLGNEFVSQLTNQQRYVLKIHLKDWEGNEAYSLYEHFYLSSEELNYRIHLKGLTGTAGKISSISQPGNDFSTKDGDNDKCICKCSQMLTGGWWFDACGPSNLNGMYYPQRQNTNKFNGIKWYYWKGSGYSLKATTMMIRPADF

T5: human Ang-2443 (human, UniProt O15123 19-496)
T5 construct: Splice variant missing amino acids 96-148; supernatant of transfected 293F cells
T5 sequence: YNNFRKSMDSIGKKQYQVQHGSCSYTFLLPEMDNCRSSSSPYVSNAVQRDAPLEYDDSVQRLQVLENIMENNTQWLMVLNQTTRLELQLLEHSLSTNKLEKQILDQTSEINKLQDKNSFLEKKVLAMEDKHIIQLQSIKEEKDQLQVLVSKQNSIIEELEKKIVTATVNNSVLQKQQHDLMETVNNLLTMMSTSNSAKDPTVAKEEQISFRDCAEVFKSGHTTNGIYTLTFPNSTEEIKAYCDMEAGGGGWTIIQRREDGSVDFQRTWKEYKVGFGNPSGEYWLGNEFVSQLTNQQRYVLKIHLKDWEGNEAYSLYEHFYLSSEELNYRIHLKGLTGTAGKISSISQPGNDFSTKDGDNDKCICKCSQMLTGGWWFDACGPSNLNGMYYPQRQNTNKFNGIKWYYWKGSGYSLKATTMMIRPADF


Assays:
Assay in all cases: ELISA
[1] = biological target: T1, Mouse/Human Ang-2 StuI chimeric molecule
[2] = biological target: T2, human Ang-2 V345M
[3] = biological target: T3, Mouse/Human chimeric Ang-2 with the …
[4] = biological target: T4, Human Ang-1/2 BsmI chimeric molecule
[5] = biological target: T5, human Ang-2443

| % of binding to human Ang-2 [1] | % of binding to human Ang-2 [2] | % of binding to human Ang-2 [3] | % of binding to human Ang-2 [4] | % of binding to human Ang-2 [5] | Binder |
| --- | --- | --- | --- | --- | --- |
| 100% | 100% | 100% | 100% | 100% | mAb 3.19.3 (antibody, V domains shown, Human hybridoma IgG (XenoMouse); also called x3.19) VH: QVQLVESGGGVVQPGRSLRLSCAASGFTFTNYGMHWGRQAPGKGLEWVAVISHDGNNKYYVDSVKGRFTISRDNSKNTLYLQMNSLRAEDTAVYYCAREGIDFWSGLNWFDPWGQGTLVTVSS VL: EIVLTQSPGTLSLSPGERATLSCRASQSITGSYLAWYQQKPGQAPRLLICGASSWATGIPDRFSGSGSGTDFTLTISRLEPEDFAVYYCQQYSSSPITFGQGTRLEIKR |
| 100% | 100% | 23% | 100% | 100% | mAb 5.86.1 (antibody, V domains shown, Human hybridoma IgG (XenoMouse); also called x5.86) VH: QVQLVQSGAEVKKPGASVKVSCKASGYTFTGYHMYWVRQAPGQGLEWLGWINPNSGGTNYAQKFQGRVTMTRDTSISTAYMELSRLRSDDTAVYYCVRDQGIAAAGPFDYWCQGTLVTVSS VL: DIRMTQSPSSLSASVGDRVTITCRASQRISTYLNWYQQKPGKAPKFLIYAASSLQSGVPSRFSGSGSGTDFTLTISSLQPEDFATYYCQQSYTTPFTFGPGTKVDIKR |
| 100% | 100% | – | 100% | 100% | mAb 5.103.1 (antibody, V domains shown, Human hybridoma IgG (XenoMouse); also called 5.103.3; x5.103) VH: QVQLVQSGAEVKKPGASVKVSCKASGYTFTGYYLYWVPQAPGQGLEWMGWISPNSGGTNYAQKFQGRVTMTRDTSISTAYMELSRLRSDDTAVYYCARDQVIAVAGPFDYWAQGTLVTVSS VL: not shown |
| 100% | 100% | 86% | 100% | 100% | mAb 5.83.1 (antibody, V domains shown, Human hybridoma IgG (XenoMouse); also called x5.83) VH: not shown VL: EIVMTQSPATLSVSPGERATLSCRASQSLISNLAWYQQKPGQAPRLLIFGASTRATGIPARFSGSGSGTEFTLTISSLQSEDFAVYYCHQYNNWWTFGQGTKVEIKR |
| 100% | 100% | 20% | 100% | 100% | mAb 5.88.3 (antibody, V domains shown, Human hybridoma IgG (XenoMouse); also called x5.88) VH: EVQMVESGGGLVQPGGSLRLSCAASGFTLRSYWMSWVRQAPGKGLEWVANIKEDGSEKYHVDSVKGRFTISRDNAENSLFLQMSSLRAEDTAVYYCARDMEASAGLFDYWGQGTLVTVSS VL: EIVMTQSPATLSVSPGERAILSCRASQSISSNLAWYQQKPGQAPRLLIYGASTRATGIPARFSGSGSGTEFTLTISSLQSEDFAVYYCQQYNYWWTFGQGTKVEIKR |
| – | 100% | – | 100% | 100% | mAb 3.31.2 (antibody, V domains shown, Human hybridoma IgG (XenoMouse); also called x3.31) VH: EVQLVESGGGLVQPGGSLRLSCAASGFTFSSYWMSWVRQAPGKGLEWVANIKQDGSDKYYVDSVKGRFTISRDNAKNSLYLRMNSLRAEDTAVFYCARDMGSGWFDYWGQGTLVTVSS VL: EVVMTQSPATLSVSPGERATLSCRASQSVGSNLAWYQQKPGQAPRLLIYGASTRATGIPARFSGSGSGTEFTLTISSLQSEDFAVYCCQQYNHWWTFGQGTKVEIKR |
| 100% | 100% | 27% | 100% | 100% | mAb 5.13.1 (antibody, V domains shown, Human hybridoma IgG (XenoMouse); also called x5.13) VH: EVQLVESGGGLVQPGGSLRLSCAASGFTFSSYWMSWVRQAPGKGLEWVANIKQDGSEKYYVDSVKGRFTISRDNAKNSLYLQMNSLRAEDTAVYYCARDPGIAVAGPFDYWGQGTLVTVSS VL: EIVMTQSPATLSVSPGERATLSCRASQSVSSNLAWYQQKPGQAPRLLIYGASTRATGIPARFSGSGSGTEFTLTISSLQSEDFAVYYCQQYNHWWTFGQGTKVEIKR |
| 100% | 100% | 28% | 100% | 100% | mAb 5.101.1 (antibody, V domains shown, Human hybridoma IgG (XenoMouse); also called x5.101) VH: not shown VL: EIVMTQSPATLSVSPGERATLSCRASQSLISNLAWYQQKPGQAPRLLIFGASTRATGIPARFSGSGSGTEFTLTISSLQSEDFAVYYCHQYNNWWTFGQGTKVEIKR |
| 100% | 100% | 15% | 100% | 100% | mAb 3.3.2 (antibody, V domains shown, Human hybridoma IgG (XenoMouse); also called 3.3.1; x3.3) VH: EVQLVESGGGLVQPGGSLRLSCAVSGFTFSSYWMSWVRQAPGKGLEWVANIKQDGSEKYYVDSVKGRFTISRDNAKNSLYLQMNSLRAEDTAVYYCARDQGIAVAGPFDYWGQGTLVTVSS VL: EIVMTQSPATLSVSPGERATLSCRASQTVSSDLAWYQQKPGQAPRLLIYGASIRATGIPARFSGSGSGTEFTLTISSLQSEDFAVYSCQQYYNWWTFGQGTKVEIKR |
| 100% | 100% | 77% | 100% | 100% | mAb 5.54.1 (antibody, V domains shown, Human hybridoma IgG (XenoMouse); also called x5.54) VH: not shown VL: EIVMTQSPATLSVSPGERATLSCRASQSLISNLAWYQQKPGQAPRLLIFGASTRATGIPARFSGSGSGTEFTLTISSLQSEDFAIYYCHQYNNWWTFGQGTKVEIKR |
| 100% | 100% | 30% | 100% | 100% | mAb 5.62.1 (antibody, V domains shown, Human hybridoma IgG (XenoMouse); also called x5.62) VH: EVQLVESGGGLVQPGGSLRLSCAASGFTFSSYWMSWVRQAPGKGLEWVANIKQDGSEKYYVDSVKGRFTISRDNAKNSLYLQMNSLRAEDTAVYYCARDPGIAVAGPFDYWGQGTLVTVSS VL: EIVMTQSPATLSVSPGERATLSCRASQSVSSNLAWYQQKPGQAPRLLIYGAFTRATGIPARFSGSGSGTEFTLTISSLQSEDFAVYYCQQYNHWWTFGQGTKVGIKR |
